Our source for the EC50 and MFI values is patent publication US20190177431A1 (FUDAN UNIVERSITY, published 2019).

First the molecules themselves.
B1: TF-mAb-Ch (antibody, V domains shown)
VH: QVQLQQPGAELVRPGASVKLSCKASGYSFISYWMNWVKQRPGQGLEWIGMIYPADSETRLNQKFKDKATLTVDKSSSTAYMQLSSPTSEDSAVYYCAREDYGSSDYWGQGTTLTVSS
VL: EILLTQSPAIIAASPGEKVTITCSASSSVSYMNWYLQKPGSSPKIWIYGISNLASGVPARFSGSGSGTSFSFTINSMETEDVATYYCQQKSSFPWTFGGGTKLEIK
notes: Variable regions of TF-mAb-SC1 cloned into vectors with human IgG1 heavy chain constant region and human kappa constant region; also called human-mouse chimeric antibody; chimeric antibody TF-mAb-Ch
B2: TF-mAb-H42 (antibody, V domains shown)
VH: QVQLVQSGAEVKKPGASVKVSCKASGYSFISYWMNWVRQAPGQGLEWIGMIYPADSETRLNQKFKDRATLTVDKSTSTAYMELSSLRSEDTAVYYCAREDYGSSDYWGQGTTVTVSS
VL: DIQLTQSPSSLSASVGDRVTITCSASSSVSYMNWYQQKPGKSPKIWIYGISNLASGVPSRFSGSGSGTDFTLTISSLQPEDFATYYCQQKSSFPWTFGGGTKVEIK
notes: Humanized
B3: TF-mAb-H47 (antibody, V domains shown)
VH: B2 VH
VL: EIVLTQSPDFQSVTPKEKVTITCSASSSVSYMNWYQQKPDQSPKIWIYGISNLASGVPSRFSGSGSGTDFTLTINSLEAEDAATYYCQQKSSFPWTFGGGTKVEIK
notes: Humanized
B4: TF-mAb-H48 (antibody, V domains shown)
VH: QVQLVQSGSELKKPGASVKVSCKASGYSFISYWMNWVRQAPGQGLEWIGMIYPADSETRLNQKFKDRAVLSVDKSVSTAYLQICSLKAEDTAVYYCAREDYGSSDYWGQGTTVTVSS
VL: B3 VL
notes: Humanized
B5: TF-mAb-H43 (antibody, V domains shown)
VH: B4 VH
VL: B2 VL
notes: Humanized
B6: TF-mAb-H30 (antibody, V domains shown)
VH: EVQLVQSGAEVKKPGESLKISCKGSGYSFTSYWMNWVRQMPGKGLEWMGMIYPADSETRLNQKFKDKATLSVDKSISTAYLQWSSLKASDTAMYYCAREDYGSSDYWGQGTTVTVSS
VL: EIVLTQSPATLSLSPGERATLSCSASSSVSYMNWYQQKPGQAPRIWIYGISNLASGIPARFSGSGSGTDFTLTISSLEPEDFAVYYCQQKSSFPWTFGGGTKVEIK
notes: Humanized
B7: TF-mAb-H32 (antibody, V domains shown)
VH: B2 VH
VL: B6 VL
notes: Humanized
B8: TF-mAb-H45 (antibody, V domains shown)
VH: B6 VH
VL: B3 VL
notes: Humanized
B9: TF-mAb-H40 (antibody, V domains shown)
VH: B6 VH
VL: B2 VL
notes: Humanized
B10: TF-mAb-H38 (antibody, V domains shown)
VH: B4 VH
VL: B6 VL with A42S, I57V
notes: Humanized
B11: TF-mAb-H44 (antibody, V domains shown)
VH: B6 VH with K67Q
VL: B3 VL
notes: Humanized; also called humanized antibody TF-mAb-H44
B12: TF-mAb-H37 (antibody, V domains shown)
VH: B2 VH
VL: B6 VL with A42S, I57V
notes: Humanized
B13: TF-mAb-H41 (antibody, V domains shown)
VH: B6 VH with R38K
VL: B2 VL
notes: Humanized
B14: TF-mAb-H31 (antibody, V domains shown)
VH: B6 VH with R38K
VL: B6 VL
notes: Humanized
B15: TF-mAb-H34 (antibody, V domains shown)
VH: B6 VH with K67Q
VL: B6 VL with A42S, I57V
notes: Humanized
B16: TF-mAb-H36 (antibody, V domains shown)
VH: B6 VH with R38K
VL: B6 VL with A42S, I57V
notes: Humanized
B17: TF-mAb-H29 (antibody, V domains shown)
VH: B6 VH with K67Q
VL: B6 VL
notes: Humanized
B18: TF-mAb-H46 (antibody, V domains shown)
VH: B6 VH with R38K
VL: B3 VL
notes: Humanized
B19: TF-mAb-H35 (antibody, V domains shown)
VH: B6 VH
VL: B6 VL with A42S, I57V
notes: Humanized
B20: TF-mAb-H33 (antibody, V domains shown)
VH: B4 VH
VL: B6 VL
notes: Humanized
B21: TF-mAb-H39 (antibody, V domains shown)
VH: B6 VH with K67Q
VL: B2 VL
notes: Humanized; also called humanized antibody TF-mAb-H39

Changes are numbered by the printed parent chain.

In the first assay the target is T1, human TF on the cell surface of tumor cells (human, UniProt P13726 33-295).
T1 construct: whole, on cells; Endogenous TF on TF-positive human tumor cell lines; also called cell surface TF
Description: flow cytometry on HCC1806 cells. Background: Flow cytometry measures light scatter and fluorescence of single cells or particles in a stream.
In turn, B1 registered an EC50 of 2.1 nM.

The next assay has as its target T1, human TF on the cell surface of tumor …. Description: flow cytometry on MDA-MB-231 cells.
The molecule B1 had an EC50 of 2.3 nM.

In a further assay the target is T2, extracellular domain of human TF protein (human, UniProt P13726 34-251).
T2 construct: range 34-251; Limits 34-251 are stated for the immunogen; also called the extracellular domain protein of TF; TF antigen
Description: ELISA, coated TF extracellular domain. Here is the method:
(§1) The antigen (the extracellular domain protein of TF) was diluted to 0.5 μg/mL with a coating solution, and was used to coat an ELISA plate overnight, at 100 μL/well and 4° C. The excessive antigen was removed by washing. The plate was blocked with 2% BSA at room temperature for 2 h, and then each of the 3-fold serial diluted monoclonal antibodies was added at 100 μL/well, and was incubated for 2 h at room temperature. The unbound antibodies were removed by washing, and an appropriate concentration of horseradish peroxidase-labeled anti-mouse secondary antibody was added at 100 μL/well, and incubated for 1 h at room temperature. The unbound secondary antibody was removed by washing, TMB chromogenic solution was added, and the color was developed to an appropriate color depth. 2M H₂SO₄ was added at 50 μL/well, to stop the chromogenic reaction, the absorbance at 450 nm was then determined, and the data was analyzed.
Molecule B1 came in with an EC50 of roughly 0.011 nM.

A further assay addresses T2, extracellular domain of human TF protein. As to the kind of experiment: ELISA, coated TF extracellular domain. The source holds these as a separate data set. The protocol: as §1
Firstly, the 20 humanized antibodies were determined for their affinity for the extracellular domain protein of TF by ELISA binding assay (The experimental method refers to Step \textcircled{4} of Example 1).
On the technique in general: ELISA stands for enzyme-linked immunosorbent assay.
B2: the concentration giving a half-maximal response (EC50) stood at 0.0128 nM.

Regarding B3, a half-maximal response (EC50) required 0.013 nM.

In turn, B4 had an EC50 of 0.0153 nM.

The molecule B5 yielded an EC50 of 0.0116 nM.

For B6, the EC50 amounted to 0.0147 nM.

B7 displayed an EC50 of 0.0168 nM.

For B8, it took 0.0138 nM to reach a half-maximal effect (EC50).

As to B9, the EC50 stood at 0.0131 nM.

B10: the EC50 amounted to 0.0178 nM.

The molecule B11 came in with an EC50 of 0.012 nM.

Regarding B12, a half-maximal effect (EC50) was put at 0.0173 nM.

B13 yielded an EC50 of 0.0134 nM.

B14: the EC50 stood at 0.0145 nM.

On to B15, for which the EC50 is 0.0154 nM.

Consider B16, for which the EC50 was 0.0234 nM.

B17 displayed an EC50 of 0.0178 nM.

With B18, the EC50 was found to be 0.0119 nM.

Molecule B19 had an EC50 of 0.0105 nM.

Molecule B20 showed an EC50 of 0.0189 nM.

Regarding B21, a half-maximal effect (EC50) was put at 0.0125 nM.

As for B1, the EC50 worked out at 0.01 nM.

A further assay has as its target T1, human TF on the cell surface of tumor …. As to the kind of experiment: flow cytometry on MDA-MB-231 cells, antibody at 1 µg/mL. Here is the method: (§2) The cells were washed with PBS twice to remove the unbound primary antibody, and the target cells were incubated with 200 μL PE-labeled secondary antibody (2 μg/mL) at 4° C. for 30 min. The cells were washed with PBS twice to remove the unbound secondary antibody, and finally the cells were re-suspended in 400 μL PBS.
In the case of B2, the MFI came to 2970.

As to B3, the MFI came to 3000.

Take B4: the MFI was 2610.

As to B5, the MFI was 2820.

In the case of B6, the MFI was 2930.

As to B7, the MFI is 2400.

With B8, the MFI came out at 3100.

Molecule B9 gave an MFI of 3180.

The molecule B10 displayed an MFI of 2870.

B11 yielded an MFI of 3200.

B12 returned an MFI of 2460.

For the molecule B13, the MFI is 3000.

Consider B14, for which the MFI turned out to be 3080.

On to B15, for which the MFI was 2460.

On to B16, for which the MFI amounted to 3040.

B17 returned an MFI of 2960.

As for B18, the MFI turned out to be 3120.

With B19, the MFI came out at 2930.

With B20, the MFI stood at 2420.

Take B21: the MFI worked out at 3180.

In turn, B1 registered an MFI of 3370.

A further assay has the same target. As to the kind of experiment: flow cytometry on MDA-MB-231 cells, antibody at 10 µg/mL. Also on record: reference not given here. Here is the method:
as §2
The molecule B2 yielded an MFI of 3350.

Regarding B3, the MFI was 3150.

For the molecule B4, the MFI turned out to be 2900.

Take B5: the MFI was 3300.

The molecule B6 yielded an MFI of 3240.

Molecule B7 came in with an MFI of 3010.

Regarding B8, the MFI amounted to 3480.

B9 yielded an MFI of 3310.

B10: the MFI was found to be 3150.

Regarding B11, the MFI amounted to 3430.

B12 gave an MFI of 2990.

Consider B13, for which the MFI was 3610.

As for B14, the MFI came out at 3470.

Consider B15, for which the MFI stood at 3270.

In turn, B16 had an MFI of 3090.

On to B17, for which the MFI was 3580.

B18: the MFI is 3410.

For the molecule B19, the MFI is 3020.

The molecule B20 gave an MFI of 2840.

Turning to B21, the MFI was 3380.

B1 had an MFI of 3540.

By EC50 is commonly meant the concentration at which the effect is half-maximal.
